{"source": "paper PMC9926331", "about": "(Journal of Molecular Cell Biology, 2022)", "target": "GST-TIP60 (human, UniProt Q92993 1-513)", "sequence (Q92993 whole entry)": "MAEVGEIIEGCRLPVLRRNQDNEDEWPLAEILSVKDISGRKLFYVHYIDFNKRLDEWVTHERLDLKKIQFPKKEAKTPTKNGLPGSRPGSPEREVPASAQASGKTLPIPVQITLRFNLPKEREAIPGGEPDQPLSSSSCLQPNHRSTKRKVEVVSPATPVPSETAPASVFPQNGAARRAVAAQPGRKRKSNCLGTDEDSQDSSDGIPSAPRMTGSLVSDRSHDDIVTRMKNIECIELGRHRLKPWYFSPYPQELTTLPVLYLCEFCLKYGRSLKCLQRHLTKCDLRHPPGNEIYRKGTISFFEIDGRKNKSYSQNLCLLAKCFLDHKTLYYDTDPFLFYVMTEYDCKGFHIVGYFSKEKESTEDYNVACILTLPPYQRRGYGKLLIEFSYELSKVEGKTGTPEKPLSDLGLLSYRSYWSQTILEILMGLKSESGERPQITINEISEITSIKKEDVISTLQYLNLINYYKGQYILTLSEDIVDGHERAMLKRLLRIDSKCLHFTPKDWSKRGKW", "assay": "pull-down"}
{"binder": "MBP-Nup62-CT (domain or fragment, human, UniProt P37198 329-522, looked up) TYAQLESLINKWSLELEDQERHFLQQATQVNAWDRTLIENGEKITSLHREVEKVKLDQKRLDQELDFILSQQKELEDLLSPLEELVKEQSGTIYLQHADEEREKTYKLAENIDAQLKRMAQDLKDIIEHLNTSGAPADTSDPLQQICKILNAHMDSLQWIDQNSALLQRKVEEVTKVCEGRRKEQERSFRITFD", "values": [{"measurement": "binding result", "result": "binds"}]}
